Common to all, as to experiment: two-hybrid; bacterial two hybrid (BACTH): T18 and T25 adenylate cyclase fusions in E. coli BTH101 (cya mutant); beta-galactosidase assay in Miller units; cultures grown overnight at 26°C, subcultured in LB, 37°C for 30 min
The target of test [1] is T25 fusion to the N terminus of Wzb (K. pneumoniae (strain KPPR1S)).
In test [2] the target is T25 fusion to the N terminus of Wzc (K. pneumoniae (strain KPPR1S)).
Test [3] concerns the target T25 fusion to the N terminus of WcaJ (K. pneumoniae (strain KPPR1S)).
Test [4] addresses leucine zipper (zip) domain, positive control of the bacterial two-hybrid system.
Test [5] has the same target. The source holds these as a separate data set.

Where two headings read alike, the source gives them in different places. Some results are limits rather than exact numbers.

Turning to RmpD-T18 (natural protein), the beta-galactosidase activity relative to the zip-zip controls (% of the zip-zip controls) in test [1] and in test [3] was < 10 each time. The same substance came in with a beta-galactosidase activity in test [2] of 2150 Miller units.

On to “leucine zipper (zip) domain, positive control of the bacterial two-hybrid system (domain or fragment)”, for which the beta-galactosidase activity in test [4] amounted to 1740 Miller units; in test [5], 1530 Miller units.

The record behind these values is paper PMC10294653.
